In article PMC11527279, “The SARS-CoV-2 ORF6 protein inhibits nuclear export of mRNA and spliceosomal U snRNA” (PLOS ONE, 2024):

Target: T1, GST-T7-ORF6-His (SARS-CoV-2, UniProt P0DTC6 1-61)
T1 construct: ORF6 protein of SARS-CoV-2, full-length recombinant protein; pGEX-T7-ORF6-His; T7 tag lies between GST and ORF6; also called GST-ORF6; not shown: GST, N-terminal, kept; T7, N-terminal, kept; His6, C-terminal, kept
T1 sequence: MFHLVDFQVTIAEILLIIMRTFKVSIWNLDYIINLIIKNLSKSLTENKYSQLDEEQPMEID
Settings: both partners purified

B1: T7-ORF6-His (natural protein)
chain: T1 sequence
notes: ORF6 protein of SARS-CoV-2, full-length recombinant protein; From pGEX-T7-ORF6-His (pGEX-6p-1 backbone); also called SARS-CoV-2 ORF6 protein; not shown: GST, N-terminal, cleaved; T7, N-terminal, kept; His6, C-terminal, kept
  binding result: binds
